# Experiment: soluble on expression in E. coli; label from the status in PepcDB or PDB records
row,Sequence,soluble on expression in E. coli
1,MTIFEKNVIEFVTVAAEFCAFLERAEHMKRKAFVDTSLKILPLLYLKASLLPKCETIGDEAPETYVTEEIYEILRINLAGLMGEKDDYLDVFVQDMVYSDQPIKKSVSEDLADIYQDIKDFIFVFQLGLNETMNDSLAICQENFGLLWGQKLVNTLRALHDVKYLEHHHHHH,soluble
2,MTIGIIGSGALGSGIARILASKGISAIISNSRGPESLASLVRELGGSIKAGTAEEAARADIVFAAVRWVDAEKVLSSLPAWEGRIVIDATNPVEFIDPDSPDANDPTNPLAAYGIKAVDLHGKYSSEIFRQFVPGARVVKAFNHLDANVFSAPEVTGGKRVLFYSGDDAAAKTEVRKIIEDTGFVPVDLGTLDVGGPLASLPFGPLAAQNFIRVLEHHHHHH,soluble
3,MTIIKYIKFVVIIVIVTIVFSCSKNEAGNSEYDPSLPISLTDFFPIQGGMATRMVIEGANFGTDLSQIKVFFNQKEASILNVKNSIIYLLVPKLPGNDCIVTVKVGNQEARFTRNFQYIENYSVTTIAGQPGTNLFVEGTLAAAQFGPVQHLAIDDENNLFITERNGSDGKGTCSVLNEESGTVTFLFKASDNLNVPTVNAQTQNVYIPLDGGYTFYELNPVNQWIAKSRLVLHPSKEQQEAGMDDFEINWKHSLAFSRYDNMIYTRSYGGDLIKVDPETRVGQKIGNFFPNTDSFIVAHPTQPEILYIAYAAKHVIYTYNIETGEHKLFAGAFGQSGWNDGIATDAEFNSPRQMSLDMEGNIYIADSGNHCIRMIDKNGIVTTPIGQPGEAGYADGSPDMALLNDPRGVAVNSEGDVYIADLGNRCIRKLTLQLEHHHHHH,not soluble
4,MTIKNVICDIDGVLMHDNVAVPGAAEFLHGIMDKGLPLVLLTNYPSQTGQDLANRFATAGVDVPDSVFYTSAMATADFLRRQEGKKAYVVGEGALIHELYKAGFTITDVNPDFVIVGETRSYNWDMMHKAAYFVANGARFIATNPDTHGRGFYPACGALCAGIEKISGRKPFYVGKPSPWIIRAALNKMQAHSEETVIVGDNLRTDILAGFQAGLETILVLSGVSSLDDIDSMPFRPSWIYPSVAEIDVILEHHHHHH,not soluble
5,MTIKYLTKNDVLAACIGGSVYASGGGGFYEHGLEMGEAAVALSPVVLKTIDEFEEDDLIITQTAIGAPAGTTDWQMLGKDYIRAVELLLEKHPHPEKIKGILTPQNGKSSSTNGWLSASALGLAVVHATGDIRAHPTGKMGNMGVANDTTYETIQAVSGGRRETGRHIELSVQGTAAYTSKILRIASDLSGGFIAAARHPLTASYIKQNAVIGGLSKAIELGYCILEHQNEDGSSIIDAIVKHTHGEILAKGKVVAKDMTYTDEAFDVGKVKIKTESDNVTLHVQNEFMAVDSQALGRVATYPDVITLFRAKDAKALSTDEISIDEEVVVFKISHKHFPLSTGVKDPSVYPEVENVLGIDLYRHAFKLEHHHHHH,soluble
6,MTILFISDLHLSPLRPDITDCFIDFMQNEAIHAEKLYVLGDLFEFWIGDDDNSPFNVSIKNEFKALTEKGVKCYFIQGNRDFLLNKRFCKETGVELLDDHTVIELDGEKVLIMHGDTLCIDDIKYQEFRAKVHKPWLQWVFNRIPLFIRQRIVKNVQDKIKEKKQTKTLCIMDVTQSEVERVMQEEGVQRLIHGHTHRPDTHTFMSNNKEMTRIVLGDWYSQGSILEYSDKIYSLHKKEFK,not soluble
7,MTIRINNISLDINEDLSLLKNKVAKKLRMSKDEIGDIKIIKESLDARKKNLIKFNYCINIEHEDEEKIVARLNDKDVKIDKVNYDFDFNFGEKKLQHRPVVIGLGPAGLFAALLLAKKGFNPIVFERGEDVDSRTKTVEEFWRTGELNPESNVQFGEGGAGAFSDGKLTTRIKDTRCDYVLDALVRNGAPEEIIYKGKPHVGTDILKNVVKNIREEIKRHGGEVHFNSRFEGIIKKDNKLKGIKVNGEEVPCEVAILALGHSSRDTYEMLFNEGVFMKQKPFAIGVRIEHPQEIINLSQYGEKYANHPRLKAAEYRLAYQSKTLDRAVYSFCMCPGGVVVNASSEEKRLCVNGMSYHARDKENANSALVVTVGPNDFGGDHPLEGMKFQRHYEELAFKLGGGNYNTPVQLVGDFMKDRVTTKLGKVNPSVLSNGYRFEDLRKCLPSYVIDGLKEGITDFDRKIKGFGHSDSVLTGIETRTSAPVRIERNEKLQSISLEGLYPAGEGAGFAGGIVSAAVDGLKVAENIMKEYRVLEHHHHHH,not soluble
8,MTITDKNRLTGEADPRRTSLYGPPSMDALTERALHLARAGRALLGIVGEPGAGKSTFAEQLRARLEKERPGLAVTVSMDGFHLAQKVIEARGQAADKGTIDTFDADGFVALLRRTRAETGDTENTESTVWWPEFDRDLEDPVAGSIEVAPHHRLVIVDGNFLLSAQEPWRQVKGLLDETWFLDALPEPRRERLTRRYISYGFTPEAARAKTLGVDEDTSALIRSTVSRADLVIGEARESGGVSDC,not soluble

# Source: the DeepSol protein solubility set
